A short description of data set [1]: Measurement of elution time in reversed phase HPLC (correlates to hydrophobicity). It counts as physicochemical. Conditions: reversed phase C-18 column, 40° C., 0.012N hydrochloric acid with 15, 25 and 50% acetonitrile, 50 minutes, 0.8 ml/min. The method, then:
(Measurement of elution time in reversed phase HPLC)
It is well known that the elution time in HPLC with the use of a reversed phase column correlates to the hydrophobicity of a compound (cf. J. Med. Chem., vol. 18, pp. 549-552 (1975) and J. Pharm. Sci., vol. 66, pp. 747-749 (1977)). Thus, the elution time of each of the VIP analog derivatives obtained in the above Reference Production Example and production Examples was measured under the HPLC conditions as specified below. As a control, natural VIP having a human type amino acid sequence (purchased from Peptide Institute, INC.) was employed.
Column: μ-BONDASPHERE C-18 column (manufactured by Millipore Corporation, 3.9 mm×150 mm)
Eluent: eluted with 0.012N hydrochloric containing 15, 25 and 50% of acetonitrile in this order, for 50 minutes
Detection wavelength: 210 nm

The test system of data set [2] is histamine-induced bronchoconstriction. Nature of the data set: Duration of bronchoconstriction suppressing activity (Konzett-Rossler method). It counts as in vivo. Conditions: male guinea pig, drug dropped directly into the respiratory tract, 5 μg/kg histamine intravenously. The method, then:
(Duration of bronchoconstriction suppressing activity)
The inhibitory activity of the VIP analog derivatives, obtained in the Production Examples above, on histamine-induced bronchoconstriction was evaluated on test samples in accordance with a Konzett-Rossler method. Natural type VIP was used as a control.
First, a male guinea pig was fixed under urethane-anesthesia. After cutting the neck of the animal, a canula drug line was inserted into its jugular vein while a canula connected to a Konzett-Rossler device was inserted into its respiratory tract. After dropping a test drug directly into the respiratory tract, the head of the animal was held up for 1 minute to allow the drug to reach the lungs. Subsequently, 5 μg/kg of histamine was intravenously administered to the animal and the bronchoconstriction was measured over time. One minute before the administration of histamine, succinylcholine chloride was intravenously administered to the animal to thereby suppress spontaneous respiration during the experiment. Evaluation was made in the following manner. Before the administration of the test drug, the intensity of bronchoconstriction induced by histamine was measured. Then, after the administration of the test drug, the time required for reducing by 50% the suppression of bronchoconstriction induced by the same dose of histamine as measured above was defined as t50. The t50 of each test drug was determined.

Data set [3] can be described thus: in vitro. Conditions: male, Hartley, guinea pig, pH 7.8.
Experimental: First, male Hartley guinea pigs (weight: 350-380 g) were anesthetized by intraperitoneally administering urethane. Next, the respiratory tract of each animal was exposed by cutting its neck and 4 ml of physiological saline was slowly injected into the respiratory tract. Then, the injected solution was recovered from the respiratory tract, which is referred to as the broncho-alveolar lavage wash.
1, 2, 3 and 4 hours after the initiation of the incubation, the reaction mixture was collected and the residual concentration of the (SEQ ID NO: 3)-n-hexylamide or the natural type VIP was measure under the following HPLC conditions to thereby determine the half-life thereof.
Column: μ-BONDASPHERE C-18 column (manufactured Waters Co., 3.9 mm×150 mm)
Eluent: eluted with 0.012N hydrochloric containing acetonitrile at a linear gradient concentration from 15 to 25%, for 20 min
For data set [4] the following is noted: broncho-alveolar lavage wash from guinea pig at 37° C.; cited from earlier work.
The target in data set [5] is enkephalinase (Homo sapiens, UniProt P08473). Conditions: incubated with enkephalinase, within 15 minutes; cited from earlier work.
enkephalinase, sequence (P08473 whole entry, species assumed): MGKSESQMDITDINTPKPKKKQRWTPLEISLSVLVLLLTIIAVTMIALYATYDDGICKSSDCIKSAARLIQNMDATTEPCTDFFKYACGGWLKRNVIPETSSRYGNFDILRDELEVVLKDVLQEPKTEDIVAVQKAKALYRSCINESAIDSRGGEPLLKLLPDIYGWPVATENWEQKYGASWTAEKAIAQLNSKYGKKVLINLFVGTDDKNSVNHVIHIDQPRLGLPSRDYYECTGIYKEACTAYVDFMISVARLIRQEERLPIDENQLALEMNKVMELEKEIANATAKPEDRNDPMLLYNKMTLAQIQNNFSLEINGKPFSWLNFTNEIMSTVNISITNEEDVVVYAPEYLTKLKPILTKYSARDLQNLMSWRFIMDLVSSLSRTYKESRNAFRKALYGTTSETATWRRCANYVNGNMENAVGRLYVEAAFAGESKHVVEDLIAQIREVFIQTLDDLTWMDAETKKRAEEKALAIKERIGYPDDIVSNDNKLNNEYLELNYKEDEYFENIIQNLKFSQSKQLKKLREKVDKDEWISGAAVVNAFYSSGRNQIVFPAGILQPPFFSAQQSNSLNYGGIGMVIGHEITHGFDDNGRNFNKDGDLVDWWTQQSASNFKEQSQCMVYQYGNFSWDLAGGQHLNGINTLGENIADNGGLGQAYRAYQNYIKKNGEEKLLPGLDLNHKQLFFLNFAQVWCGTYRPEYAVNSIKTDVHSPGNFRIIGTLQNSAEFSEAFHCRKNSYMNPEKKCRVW

By half-life is commonly meant the time needed for the level to fall by half in the phase considered.

Square brackets hold non-standard residues; d marks the D form. Ends that are not written are not given here. Peptide text beside a SMILES is read from it. hSer = N[C@@H](CCO)C(=O)O

With “Reference Production Example: basic VIP analog of SEQ ID NO: 3 disclosed in JP-A-6-220090 / EP-A-0,613,904, starting material of the derivatives (HSDAVFTGNYTKLRKQLAAKKYLNKALK[hSer]; ends and bridges not checked) [reference compound]”, the Retention time in data set [1] amounted to 13.8 min. In addition, the t50 in data set [2] is on record as 26 min.

As for `CCCCCCNC(=O)[C@H](CCO)NC(=O)[C@H](CCCCN)NC(=O)[C@H](CC(C)C)NC(=O)[C@H](C)NC(=O)[C@H](CCCCN)NC(=O)[C@H](CC(N)=O)NC(=O)[C@H](CC(C)C)NC(=O)[C@H](Cc1ccc(O)cc1)NC(=O)[C@H](CCCCN)NC(=O)[C@H](CCCCN)NC(=O)[C@H](C)NC(=O)[C@H](C)NC(=O)[C@H](CC(C)C)NC(=O)[C@H](CCC(N)=O)NC(=O)[C@H](CCCCN)NC(=O)[C@H](CCCNC(=N)N)NC(=O)[C@H](CC(C)C)NC(=O)[C@H](CCCCN)NC(=O)[C@@H](NC(=O)[C@H](Cc1ccc(O)cc1)NC(=O)[C@H](CC(N)=O)NC(=O)CNC(=O)[C@@H](NC(=O)[C@H](Cc1ccccc1)NC(=O)[C@@H](NC(=O)[C@H](C)NC(=O)[C@H](CC(=O)O)NC(=O)[C@H](CO)NC(=O)[C@@H](N)Cc1c[nH]cn1)C(C)C)[C@@H](C)O)[C@@H](C)O` [Production Example 2, VIP analog-n-hexylamide derivative] (HELM PEPTIDE1{H.S.D.A.V.F.T.G.N.Y.T.K.L.R.K.Q.L.A.A.K.K.Y.L.N.K.A.L.K.[O=C([C@H](CCO)N[*:1])[*:2]].[CCCCCCN[*:1]]}$$$$V2.0), in data set [3] (broncho-alveolar lavage wash), the half-life at 330 μg/ml was 4.9 h.

In turn, “VIP analog-stearylamide derivative (HSDAVFTGNYTKLRKQLAAKKYLNKALK[hSer]-stearylamide) [Production Example 4]” showed a Retention time in data set [1] of 46.8 min.

The compound “VIP analog-dihexylamide derivative (HSDAVFTGNYTKLRKQLAAKKYLNKALK[hSer]-dihexylamide) [Production Example 6]” had a Retention time in data set [1] of 41.4 min.

Take “VIP analog-ethylenediaminemonoamide derivative (HSDAVFTGNYTKLRKQLAAKKYLNKALK[hSer]-{ethylenediamine monoamide}) [Production Example 8]”: in data set [1], the Retention time came to 12.1 min.

With “VIP analog-oleylamide derivative (HSDAVFTGNYTKLRKQLAAKKYLNKALK[hSer]-oleylamide) [Production Example 5]”, the Retention time in data set [1] was 48.3 min.

Compound “VIP analog-triethylenetetraminemonoamide derivative (HSDAVFTGNYTKLRKQLAAKKYLNKALK[hSer]-{triethylenetetramine monoamide}) [Production Example 7]” yielded a Retention time in data set [1] of 10.9 min. In addition, the t50 in data set [2] worked out at 58 min.

Consider `CC[C@H](C)[C@H](NC(=O)[C@H](CO)NC(=O)[C@H](CC(N)=O)NC(=O)[C@H](CC(C)C)NC(=O)[C@H](Cc1ccc(O)cc1)NC(=O)[C@H](CCCCN)NC(=O)[C@H](CCCCN)NC(=O)[C@@H](NC(=O)[C@H](C)NC(=O)[C@H](CCSC)NC(=O)[C@H](CCC(N)=O)NC(=O)[C@H](CCCCN)NC(=O)[C@H](CCCN=C(N)N)NC(=O)[C@H](CC(C)C)NC(=O)[C@H](CCCN=C(N)N)NC(=O)[C@@H](NC(=O)[C@H](Cc1ccc(O)cc1)NC(=O)[C@H](CC(N)=O)NC(=O)[C@H](CC(=O)O)NC(=O)[C@@H](NC(=O)[C@H](Cc1ccccc1)NC(=O)[C@@H](NC(=O)[C@H](C)NC(=O)[C@H](CC(=O)O)NC(=O)[C@H](CO)NC(=O)[C@@H](N)Cc1c[nH]cn1)C(C)C)[C@@H](C)O)[C@@H](C)O)C(C)C)C(=O)N[C@@H](CC(C)C)C(=O)N[C@@H](CC(N)=O)C(N)=O` [VIP, vasoactive intestinal polypeptide], for which the half-life at 330 μg/ml in data set [3] (cerebrospinal or other body fluid) was 1.2 h. Besides, in data set [4], the half-life result is reported as “about 1.5 hours”. Further, the VIP degraded entry in data set [5] is given as “more than 70%”.

With “VIP analog-n-propylamide derivative (HSDAVFTGNYTKLRKQLAAKKYLNKALK[hSer]-{n‑propylamide}) [Production Example 1]”, the Retention time in data set [1] is listed as 18.0 min.

On to “VIP analog-laurylamide derivative (HSDAVFTGNYTKLRKQLAAKKYLNKALK[hSer]-laurylamide) [Production Example 3]”, for which the Retention time in data set [1] was 40.0 min. Also, the t50 in data set [2] amounted to 61 min.

The values above are taken from US5521157A, “Modified polypeptide compound with VIP-like activity” (Sanwa Kagaku Kenkyusho Co., Ltd., priority 1993, dated 1996).
